These are literature values, as cited in publication PMC9456110.

pKd: −log10 of the molar value. Read-outs that look alike come from different tables or passages of the source.

Series [1] concerns the target Calmodulin (Homo sapiens) (UniProt P0DP23).
The target is the same in series [2]. This is another data set of the same source.
Series [3] shares this target. This is another data set of the same source.
For series [4] the target is unchanged. The source holds these as a separate data set.
Series [5] has the same target. The source holds these as a separate data set.
Series [6] has as its target PIP (Homo sapiens) (UniProt P12273).
UniProt P12273, sequence (P12273 29-146): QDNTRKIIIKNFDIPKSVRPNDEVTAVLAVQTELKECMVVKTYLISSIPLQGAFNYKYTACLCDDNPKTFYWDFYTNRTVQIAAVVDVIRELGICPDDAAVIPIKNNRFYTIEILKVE

What is called pKd is the Kd on a negative log10 scale, so that one unit is a factor of ten. Turning to AQP6 N-terminus (from UniProt Q13520), the pKd in series [1] is 5.75.
For the substance AQP4 C-terminus (from UniProt P55087), the pKd in series [2] was 5.44.
With AQP4 (from UniProt P55087), the pKd in series [3] is 4.54.
For the substance AQP6 N-terminus (from UniProt Q8C4A0), the pKd in series [4] was 6.10.
With AQP4 N-terminus (from UniProt P55087), the pKd in series [5] was 5.47.
Consider AQP5 C-terminus (from UniProt P55064), for which the pKd in series [6] was 6.24.
